# Laboratory results: paper PMC4189786
# Target: serum albumin (HSA in Results and figures; Methods state purchased bovine serum albumin, Sigma A7030) ((Methods: bovine)) (UniProt P02769)
# Assay: tryptophan fluorescence quenching
# Details: 6 uM albumin, off-target, 6 uM albumin in phosphate buffer (10 mM) pH 7.4, 37 C, excitation 290 nm, emission 300-400 nm, 90 s after each aptamer addition
# Chain of serum albumin (HSA in Results and figures; Methods state purchased bovine serum albumin, Sigma A7030) ((Methods: bovine)) (P02769 25-607): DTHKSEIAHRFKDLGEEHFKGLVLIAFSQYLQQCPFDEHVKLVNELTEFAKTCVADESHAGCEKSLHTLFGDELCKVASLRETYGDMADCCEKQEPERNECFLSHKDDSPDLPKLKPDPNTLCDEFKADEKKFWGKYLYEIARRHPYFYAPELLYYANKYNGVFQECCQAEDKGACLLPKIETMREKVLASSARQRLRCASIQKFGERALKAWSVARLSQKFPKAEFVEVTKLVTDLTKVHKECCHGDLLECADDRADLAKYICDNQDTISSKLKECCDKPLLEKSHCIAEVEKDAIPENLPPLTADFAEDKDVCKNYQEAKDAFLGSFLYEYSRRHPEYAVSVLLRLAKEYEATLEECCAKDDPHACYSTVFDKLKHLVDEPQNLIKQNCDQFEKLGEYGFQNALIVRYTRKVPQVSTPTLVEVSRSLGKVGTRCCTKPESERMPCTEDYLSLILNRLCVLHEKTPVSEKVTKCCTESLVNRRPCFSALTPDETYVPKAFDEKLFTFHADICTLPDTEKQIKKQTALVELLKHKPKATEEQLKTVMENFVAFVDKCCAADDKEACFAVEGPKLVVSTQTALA
Sequence,binding signal (aptamer:HSA 1:10) [% quenching],binding signal (aptamer:HSA 1:100) [% quenching]
ACTTTTGAATGTGGCAACAAATTCGACAGG [1.5 M Short],9,1.5
GGGAGACAAGAATAAACGCTCAAATGGACTTTTGAATGTGGCAACAAATTCGACAGGAGGCTCACAACAGGC [1.5 M Long],16,2.4
